Results from paper PMC3095670.
Where two headings read alike, the source gives them in different places.

Legend:
[1] = target: T1, DNA polymerase beta 8-kDa domain (isolated) (rat, UniProt P06766 1-87); assay: FRET
[2] = target: T1, DNA polymerase beta 8-kDa domain …; assay: fluorescence titration
[3] = target: T2, DNA polymerase beta, intact (rat, UniProt P06766 1-335); assay: fluorescence titration
[4] = target: T2, DNA polymerase beta, intact; assay: fluorescence titration; remark: listed apart in the source

Binder: TTTTTTTTTTTTTTTTTTTT (ssDNA) [5'-Fl-dT(pT)19-CP-3']
- binding result [1]: binds

Binder: AAAAAAAAAA (ssDNA, all adenines 1,N6-etheno-A (chloroacetaldehyde)) [dεA(pεA)9]
- binding result [2]: binds

Binder: AAAAAAAAAAAAAAAAAAAA (ssDNA, all adenines 1,N6-etheno-A (chloroacetaldehyde)) [dεA(pεA)19]
- binding result [3]: binds

Binder: AAAAAAAAAAAAAA (ssDNA, all adenines 1,N6-etheno-A (chloroacetaldehyde)) [dεA(pεA)13]
- binding result [4]: binds
